Measurements published in patent publication US20180140739A1, “HAEMOSTATIC DEVICE” (HAEMOSTATIX LIMITED, priority 2015, published 2018).
Ends that are not written are not given here.

Assays:
[1] = target: T1, fibrinogen hole 'a' and hole 'b' (Homo sapiens, UniProt P02675+P02679); conditions: cited from earlier work
T1 sequence (P02679 27-433 limits assumed): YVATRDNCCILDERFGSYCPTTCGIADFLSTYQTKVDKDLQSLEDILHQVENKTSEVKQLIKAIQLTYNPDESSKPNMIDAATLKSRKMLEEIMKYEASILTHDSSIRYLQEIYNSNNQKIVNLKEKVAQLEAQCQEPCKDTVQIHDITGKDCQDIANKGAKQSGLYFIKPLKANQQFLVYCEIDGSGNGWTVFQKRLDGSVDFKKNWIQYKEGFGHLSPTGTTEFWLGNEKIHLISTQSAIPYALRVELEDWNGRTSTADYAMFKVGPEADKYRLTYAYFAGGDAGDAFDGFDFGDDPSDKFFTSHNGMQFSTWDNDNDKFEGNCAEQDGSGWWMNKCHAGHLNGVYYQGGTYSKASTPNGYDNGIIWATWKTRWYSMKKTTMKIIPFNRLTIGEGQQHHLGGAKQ
T1 sequence (P02675 31-491): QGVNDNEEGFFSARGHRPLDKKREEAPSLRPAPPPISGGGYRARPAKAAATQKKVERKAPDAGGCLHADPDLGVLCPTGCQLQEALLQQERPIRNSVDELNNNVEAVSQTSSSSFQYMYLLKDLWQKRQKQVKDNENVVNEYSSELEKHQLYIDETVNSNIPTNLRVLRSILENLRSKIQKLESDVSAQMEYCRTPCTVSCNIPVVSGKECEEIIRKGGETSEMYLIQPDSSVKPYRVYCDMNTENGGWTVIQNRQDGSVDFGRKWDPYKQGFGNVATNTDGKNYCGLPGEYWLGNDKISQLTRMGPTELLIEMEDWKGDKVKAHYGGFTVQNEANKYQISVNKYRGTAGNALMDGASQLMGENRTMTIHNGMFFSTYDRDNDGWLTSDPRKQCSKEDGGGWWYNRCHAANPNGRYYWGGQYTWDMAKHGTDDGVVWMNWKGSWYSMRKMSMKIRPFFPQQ
T1 sequence (P02671 20-629 partner limits assumed): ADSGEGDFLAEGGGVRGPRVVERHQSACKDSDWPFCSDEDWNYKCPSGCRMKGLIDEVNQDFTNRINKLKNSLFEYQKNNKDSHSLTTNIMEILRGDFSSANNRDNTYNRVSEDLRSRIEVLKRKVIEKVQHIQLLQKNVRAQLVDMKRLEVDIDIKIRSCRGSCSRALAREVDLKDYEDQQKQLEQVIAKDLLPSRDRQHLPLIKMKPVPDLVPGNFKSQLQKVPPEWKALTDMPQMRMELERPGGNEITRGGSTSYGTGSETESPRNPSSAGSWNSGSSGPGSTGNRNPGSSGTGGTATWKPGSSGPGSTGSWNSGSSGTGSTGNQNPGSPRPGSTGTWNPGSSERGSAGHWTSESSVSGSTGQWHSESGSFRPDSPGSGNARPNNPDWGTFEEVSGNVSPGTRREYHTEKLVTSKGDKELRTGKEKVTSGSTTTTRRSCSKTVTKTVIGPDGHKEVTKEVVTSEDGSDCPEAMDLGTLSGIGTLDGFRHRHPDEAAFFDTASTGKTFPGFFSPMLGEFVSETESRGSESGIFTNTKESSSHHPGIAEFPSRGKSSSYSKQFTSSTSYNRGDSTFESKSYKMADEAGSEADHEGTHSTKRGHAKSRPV

[2] = target: T2, purified human fibrinogen (Homo sapiens, UniProt P02675+P02679); experiment: Polymerisation (clotting) of purified fibrinogen, Sigma Amelung KC4 Delta coagulation analyser; assay type: biochemical; conditions: conjugate 2 mg/ml, dendrimer 0.025-0.5 mg/ml
T2 sequence (P02679 27-433 limits assumed): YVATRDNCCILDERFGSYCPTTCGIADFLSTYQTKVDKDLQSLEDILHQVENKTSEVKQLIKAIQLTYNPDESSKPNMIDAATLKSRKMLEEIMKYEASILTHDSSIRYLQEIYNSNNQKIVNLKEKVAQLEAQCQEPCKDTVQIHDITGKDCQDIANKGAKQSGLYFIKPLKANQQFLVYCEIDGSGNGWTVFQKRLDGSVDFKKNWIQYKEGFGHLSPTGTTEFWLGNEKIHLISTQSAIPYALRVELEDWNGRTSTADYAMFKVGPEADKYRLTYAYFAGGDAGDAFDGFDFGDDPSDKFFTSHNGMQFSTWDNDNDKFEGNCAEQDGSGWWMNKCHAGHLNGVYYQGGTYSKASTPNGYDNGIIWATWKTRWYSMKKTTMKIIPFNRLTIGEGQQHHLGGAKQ
T2 sequence (P02675 31-491): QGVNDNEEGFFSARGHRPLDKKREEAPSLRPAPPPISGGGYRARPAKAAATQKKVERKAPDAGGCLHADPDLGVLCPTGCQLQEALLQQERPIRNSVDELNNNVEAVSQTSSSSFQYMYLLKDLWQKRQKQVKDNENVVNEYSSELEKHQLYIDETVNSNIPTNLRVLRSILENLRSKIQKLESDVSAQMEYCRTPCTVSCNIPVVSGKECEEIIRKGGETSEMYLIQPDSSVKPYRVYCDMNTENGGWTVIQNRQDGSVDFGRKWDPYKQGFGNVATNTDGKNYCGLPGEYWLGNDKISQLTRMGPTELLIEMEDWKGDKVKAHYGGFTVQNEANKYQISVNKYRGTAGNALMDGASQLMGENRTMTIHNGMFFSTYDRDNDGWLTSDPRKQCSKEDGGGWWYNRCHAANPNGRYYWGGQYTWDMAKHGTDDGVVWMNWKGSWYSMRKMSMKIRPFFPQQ
T2 sequence (P02671 20-629 partner limits assumed): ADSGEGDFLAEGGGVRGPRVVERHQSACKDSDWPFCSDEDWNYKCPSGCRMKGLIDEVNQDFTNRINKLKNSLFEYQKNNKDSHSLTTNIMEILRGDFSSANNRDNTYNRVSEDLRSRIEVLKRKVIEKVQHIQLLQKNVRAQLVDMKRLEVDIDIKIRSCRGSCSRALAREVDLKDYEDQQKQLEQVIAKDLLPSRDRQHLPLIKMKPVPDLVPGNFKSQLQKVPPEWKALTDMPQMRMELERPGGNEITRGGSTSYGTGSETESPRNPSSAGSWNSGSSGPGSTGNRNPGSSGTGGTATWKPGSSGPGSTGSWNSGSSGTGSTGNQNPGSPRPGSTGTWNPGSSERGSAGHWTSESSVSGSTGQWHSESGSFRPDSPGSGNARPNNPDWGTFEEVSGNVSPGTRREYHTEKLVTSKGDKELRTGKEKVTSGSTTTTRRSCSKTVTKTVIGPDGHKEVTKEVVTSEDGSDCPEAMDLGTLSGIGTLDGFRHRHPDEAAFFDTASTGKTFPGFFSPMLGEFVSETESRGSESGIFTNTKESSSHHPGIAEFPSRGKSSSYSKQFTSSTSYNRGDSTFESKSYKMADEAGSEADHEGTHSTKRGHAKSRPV
Procedure: The ability of Peptide Dendrimer No. 12 to polymerise fibrinogen was assessed. 30 μl of dendrimer in solution, at concentration ranging from 0.005-2 mg/ml, was added to 100 μl purified human fibrinogen at 3 mg/ml (the level of fibrinogen found in the blood). Polymerisation of fibrinogen was analysed using a Sigma Amelung KC4 Delta coagulation analyser.
The concentration of each dendrimer was varied from 0.005-0.5 mg/ml.

human fibrinogen (human) = human fibrinogen (human) (UniProt P02671); experiment: cell-based or functional assay

GPRPG (listed as Homo sapiens)
binding preference for hole 'a' / hole 'b' of fibrinogen [1]: binds to hole ‘a’ and hole ‘b’ of fibrinogen, but with some preference for hole ‘a’

Peptide Conjugate No. 1 (peptide 1 GPRP; peptide 2 GPRP; also: peptide conjugate of two chains, linkage not given here)
activity of mixtures of peptide conjugate (2 mg/ml) with Peptide Dendrimer No. 3 or 4 in copolymerising with fibrinogen [2]: not active

GFIRPY
binding preference for hole 'a' / hole 'b' of fibrinogen [1]: binds strongly and preferentially to the ‘b’ hole of fibrinogen

B1: Peptide Dendrimer No. 12 (peptide, from a related filing, part only)
peptide: GPRPG
chain: KKKKK
modifications: also: five-arm dendrimer, all arms GPRPG, C-termini attached to branched core
Clotting activity (seconds), non-irradiated control; extract about 0.25 mg/ml with human fibrinogen 3 mg/ml, 37° C. (human fibrinogen (human)): 1 s
Clotting activity (seconds), storage for 2 weeks post irradiation (30 kGy); extract about 0.25 mg/ml with human fibrinogen 3 mg/ml, 37° C. (human fibrinogen (human)): 1 s
Clotting activity (seconds), storage for 4 weeks post irradiation (30 kGy); extract about 0.25 mg/ml with human fibrinogen 3 mg/ml, 37° C. (human fibrinogen (human)): 1 s
clotting time in human plasma, dendrimer 0.25 mg/ml, 37° C., coagulation analyser (human fibrinogen (human)): < 1 s
